Test results as given in article doi:10.1101/2021.04.01.438030.

Target: SNAP-GLP-1R (glucagon-like peptide-1 receptor with an N-terminal SNAP-tag) on HEK293-SNAP-GLP-1R cells (UniProt P43220)
Assay: FRET

Chain of UniProt P43220 (P43220 24-463): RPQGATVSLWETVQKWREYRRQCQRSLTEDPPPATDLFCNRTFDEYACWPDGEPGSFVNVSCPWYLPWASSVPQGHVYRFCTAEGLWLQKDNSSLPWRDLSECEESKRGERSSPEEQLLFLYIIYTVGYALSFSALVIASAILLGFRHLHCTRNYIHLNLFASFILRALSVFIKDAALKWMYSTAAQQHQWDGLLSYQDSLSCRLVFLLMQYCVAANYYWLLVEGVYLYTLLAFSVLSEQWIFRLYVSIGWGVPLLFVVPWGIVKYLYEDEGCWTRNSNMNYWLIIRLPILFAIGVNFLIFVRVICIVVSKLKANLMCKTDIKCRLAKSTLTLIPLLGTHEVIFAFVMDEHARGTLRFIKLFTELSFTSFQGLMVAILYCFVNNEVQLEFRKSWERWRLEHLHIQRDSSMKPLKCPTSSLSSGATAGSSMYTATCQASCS

Row | Substance | Ki [nM]
1 | exendin-4 (from UniProt P26349 48-87) | 0.63
2 | exendin-4-C16 (from UniProt P26349 48-87) | 1.6
